Results reported in patent publication US20240336672A1.

What was measured:
Settings in all cases: remark: other sources report otherwise
[1] = target: SARS-CoV-2 RBD domain, Wuhan (SARS-CoV-2); assay: ELISA
[2] = target: SARS-CoV-2 RBD domain, Wuhan (SARS-CoV-2); assay: ELISA; set-up: unit not given beside the values
[3] = target: SARS-CoV-2 RBD domain, Wuhan (SARS-CoV-2); assay: ELISA; set-up: unit not given beside the values; remark: listed apart in the source
[4] = target: SARS-CoV-2 RBD domain, Wuhan (SARS-CoV-2); assay: ELISA; set-up: unit not given beside the values; remark: listed apart in the source
[5] = target: CoV-MERS Spike ectodomain (MERS-CoV), K9N5Q8; assay: ELISA, coated antigen
[6] = target: SARS-CoV-1 Spike ectodomain (SARS-CoV-1), P59594; assay: ELISA, coated antigen
[7] = target: SARS-CoV-2 RBD domain, Wuhan (SARS-CoV-2); assay: ELISA, coated antigen
[8] = target: T1, SARS-CoV-2 Spike (S) protein on cells (S-Flow assay) (SARS-CoV-2), P0DTC2; assay: flow cytometry (Mock 2.5)
[9] = target: T1, SARS-CoV-2 Spike (S) protein on cells …; assay: flow cytometry, transfected cells
[10] = target: SARS-CoV-2 RBD domain, Wuhan (SARS-CoV-2); assay: RBD/ACE2 blocking ELISA
[11] = target: SARS-CoV-2 RBD domain, Wuhan (SARS-CoV-2); assay: SPR (Biacore), antibody immobilised
[12] = target: SARS-CoV-2 RBD domain, Wuhan (SARS-CoV-2); assay: RBD-ACE2 competition ELISA; set-up: unit not given beside the values
[13] = target: SARS-CoV-2 RBD domain, Wuhan (SARS-CoV-2); assay: RBD-ACE2 competition ELISA; set-up: unit not given beside the values; remark: listed apart in the source
[14] = target: T1, SARS-CoV-2 Spike (S) protein on cells …; assay: S-Flow flow cytometry, spike-expressing cells
[15] = target: SARS-CoV-2 RBD domain, Wuhan (SARS-CoV-2); assay: competition ELISA vs bio-Cv2.1169
[16] = target: SARS-CoV-2 RBD domain, Wuhan (SARS-CoV-2); assay: competition ELISA vs bio-Cv2.1353
[17] = target: SARS-CoV-2 RBD domain, Wuhan (SARS-CoV-2); assay: competition ELISA vs bio-Cv2.3194
[18] = target: SARS-CoV-2 RBD domain, Wuhan (SARS-CoV-2); assay: competition ELISA vs bio-Cv2.3235
[19] = target: SARS-CoV-2 RBD domain, Wuhan (SARS-CoV-2); assay: competition ELISA vs bio-Cv2.5213
[20] = target: SARS-CoV-2 RBD domain, Wuhan (SARS-CoV-2); assay: SPR (Biacore), IgG immobilized, viral protein as analyte
[21] = target: SARS-CoV-2 RBD domain, Wuhan (SARS-CoV-2); assay: competition ELISA, biotinylated RBD to immobilized ACE2 ectodomain
[22] = target: SARS-CoV-2 RBD domain, Wuhan (SARS-CoV-2); assay: SPR (Biacore), antibody coupled to CM5 chip, viral protein as analyte

B1: Cv2.3194 (recombinant human IgG1) (antibody)
heavy: EVQLVESGGGLIQPGGSLRLSCAASGITVTSNYMSWVRQAPGKGLEWVSVIYPGGSTFYADSVKGRFTISRDNSKNTLYLQMNSLRAEDTAVYYCARDLVVYGMDVWGQGTTVTVSSASTKGPSVFPLAPSSKSTSGGTAALGCLVKDYFPEPVTVSWNSGALTSGVHTFPAVLQSSGLYSLSSVVTVPSSSLGTQTYICNVNHKPSNTKVDKKVEPKSCDKTHTCPPCPAPELLGGPSVFLFPPKPKDTLMISRTPEVTCVVVDVSHEDPEVKFNWYVDGVEVHNAKTKPREEQYNSTYRVVSVLTVLHQDWLNGKEYKCKVSNKALPAPIEKTISKAKQPREPQVYTLPPSRDELTKNQVSLTCLVKGFYPSDIAVEWESNGQPENNYKTTPPVLDSDGSFFLYSKLTVDKSRWQQGNVFSCSVMHEALHNHYTQKSLSLSPGK
light: EIVLTQSPGTLSLSPGERATLSCRASQSVSSSYLAWYQQKPGQAPRLLIYGASSRATGIPGRFSGSGSGTDFTLTISRLEPEDFAIYYCQQGVTFGGGTKVEIKRTVAAPSVFIFPPSDEQLKSGTASVVCLLNNFYPREAKVQWKVDNALQSGNSQESVTEQDSKDSTYSLSSTLTLSKADYEKHKVYACEVTHQGLSSPVTKSFNRGEC
Q: With B1 as the binder, how does the OD405nm [1] read?
A: 3.4

Q: What about the AUC (RBD bind.) [2] of the same binder?
A: 12

Q: And the AUC [3]?
A: 3

Q: What about the AUC (RBD bind.) [4] of the same binder?
A: 13

Q: And the ELISA OD [5]?
A: 0.1 OD

Q: And the ELISA OD [6]?
A: 0.1 OD

Q: And the ELISA OD [7]?
A: 3.6 OD

Q: What about the log10 ΔgMFI [8] of the same binder?
A: 4.4

Q: And the log10 ΔgMFI [9]?
A: 4

Q: What about the % binding inhibition [10] of the same binder?
A: 96%

Q: What about the Kd [11] of the same binder?
A: < 100 pM

Q: What about the AUC (RBD block.) [12] of the same binder?
A: 365

Q: What about the AUC (RBD block.) [13] of the same binder?
A: 183

Q: What about the S-Flow (%) [14] of the same binder?
A: 94%

Q: What about the S-Flow (MFI) [14] of the same binder?
A: 260000 MFI

Q: What about the % inhibition (competition) [15] of the same binder?
A: 56

Q: What about the % inhibition (competition) [16] of the same binder?
A: 65

Q: And the % inhibition (competition) [17]?
A: 72

Q: And the % inhibition (competition) [18]?
A: 74

Q: What about the % inhibition (competition) [19] of the same binder?
A: 70

Q: What about the Kd [20] of the same binder?
A: 6.27 pM

Q: And the koff [20]?
A: 3.06e-06 s⁻¹

Q: And the kon [20]?
A: 487000 M⁻¹ s⁻¹

Q: And the IC50 [21]?
A: 0.099 µg/mL

Q: What about the IC90 [21] of the same binder?
A: 0.185 µg/mL

Q: And the Kd [22]?
A: < 1 pM
